One test has as its target T1, GPIIb/IIIa (Homo sapiens, UniProt P05106+P08514).
T1 construct: The washed platelets were lysed in, 20 mM Tris-HCl pH 7.4, 140 mM NaCl, 2 mM CaCl2, 1 mM pefabloc, 3% octylglucoside; from tissue; host or cells: outdated platelets
Put plainly: Inhibition of ruthenium-labeled human fibrinogen (fibrinogen-ru) binding to GPIIb/IIIa, solid phase binding assay. Conditions: FIGS. 5A and 5B. How it is done:
(§1) Ruthenylation of Vitronectin and Fibrinogen. Purified human vitronectin or purified human fibrinogen (Calbiochem) was dialyzed into 50 mM borate, 100 mM NaCl pH 8.0. A stock solution of ruthenium (II) tris bipyridine N-hydroxysuccinimide ester (Origen TAG® Ester, Igen Inc. Gaithersburg, Md.) was freshly prepared by adding 50 μL DMSO to 150 μg of the Origen TAG-NHS ester. Fifty microliters of the Origen TAG-NHS ester was added to one fifth molar ratio of the matrix protein. After one hour incubation at […], the reaction was quench by the addition of 50 μL of 2 M glycine. Unincorporated ruthenium and excess glycine were removed by dialysis into PBS, 0.05% NaN3. Protein concentrations were determined using Micro-BCA (Pierce, Rockford, Ill.). Origen TAG incorporation was assessed at 455 nm (e=13,700 M^−1 cm^−1). Vitronectin-Ru and Fibrinogen-Ru were stored at −70° C. until needed. […]
(§2) Solid Phase Binding Assay. […] The assay mixture was incubated at 25° C. for two hours with agitation and subsequently read on an Origen Analyzer® (Igen Inc. Gaithersburg, Md.) Non-specific binding was determined using 1 μM Vitronectin, 1 μM Fibrinogen or 5 mM EDTA. The data was prepared using a four-parameter fit by the Levenburg Marquardt algorithm (XLfit® ID Business Solutions.) Ki values were calculated using the equation of Cheng and Prusoff (1973) Biochem. Pharmacology 22: 3099-3108.

A further test deals with T2, human αvβ3 (Homo sapiens, UniProt P05106+P06756).
T2 construct: tissue Chemicon International Inc. (alternative source, catalogue number not given); host or cells: placenta
T2 sequence (P06756 31-889 limits assumed): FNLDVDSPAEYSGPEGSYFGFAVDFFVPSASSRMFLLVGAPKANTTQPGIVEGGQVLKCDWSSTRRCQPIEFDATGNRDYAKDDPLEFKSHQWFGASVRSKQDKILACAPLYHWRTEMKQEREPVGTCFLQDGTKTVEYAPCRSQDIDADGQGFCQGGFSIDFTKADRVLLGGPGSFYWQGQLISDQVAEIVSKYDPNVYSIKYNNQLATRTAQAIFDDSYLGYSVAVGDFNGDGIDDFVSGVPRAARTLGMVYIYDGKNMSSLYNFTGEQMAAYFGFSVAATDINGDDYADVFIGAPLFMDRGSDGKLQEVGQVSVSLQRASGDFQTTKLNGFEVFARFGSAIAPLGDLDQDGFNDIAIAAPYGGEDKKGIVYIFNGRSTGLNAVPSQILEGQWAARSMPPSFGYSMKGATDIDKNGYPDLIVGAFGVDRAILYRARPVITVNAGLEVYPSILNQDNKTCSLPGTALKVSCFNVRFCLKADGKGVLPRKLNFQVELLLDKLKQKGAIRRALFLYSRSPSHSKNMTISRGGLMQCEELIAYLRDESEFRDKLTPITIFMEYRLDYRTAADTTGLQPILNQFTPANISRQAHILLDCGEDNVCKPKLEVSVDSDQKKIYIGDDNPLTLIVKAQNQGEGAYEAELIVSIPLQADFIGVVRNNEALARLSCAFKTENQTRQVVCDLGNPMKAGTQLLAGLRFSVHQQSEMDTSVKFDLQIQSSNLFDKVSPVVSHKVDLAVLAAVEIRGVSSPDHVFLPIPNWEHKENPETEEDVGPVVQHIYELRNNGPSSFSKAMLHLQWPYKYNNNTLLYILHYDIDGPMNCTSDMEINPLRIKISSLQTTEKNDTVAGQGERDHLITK
T2 sequence (P06756 891-1048 partner limits assumed): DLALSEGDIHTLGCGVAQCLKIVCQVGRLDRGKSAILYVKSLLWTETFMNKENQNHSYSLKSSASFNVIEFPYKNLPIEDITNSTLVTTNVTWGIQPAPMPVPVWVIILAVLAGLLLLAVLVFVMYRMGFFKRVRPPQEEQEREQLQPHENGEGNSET
T2 sequence (P05106 27-788): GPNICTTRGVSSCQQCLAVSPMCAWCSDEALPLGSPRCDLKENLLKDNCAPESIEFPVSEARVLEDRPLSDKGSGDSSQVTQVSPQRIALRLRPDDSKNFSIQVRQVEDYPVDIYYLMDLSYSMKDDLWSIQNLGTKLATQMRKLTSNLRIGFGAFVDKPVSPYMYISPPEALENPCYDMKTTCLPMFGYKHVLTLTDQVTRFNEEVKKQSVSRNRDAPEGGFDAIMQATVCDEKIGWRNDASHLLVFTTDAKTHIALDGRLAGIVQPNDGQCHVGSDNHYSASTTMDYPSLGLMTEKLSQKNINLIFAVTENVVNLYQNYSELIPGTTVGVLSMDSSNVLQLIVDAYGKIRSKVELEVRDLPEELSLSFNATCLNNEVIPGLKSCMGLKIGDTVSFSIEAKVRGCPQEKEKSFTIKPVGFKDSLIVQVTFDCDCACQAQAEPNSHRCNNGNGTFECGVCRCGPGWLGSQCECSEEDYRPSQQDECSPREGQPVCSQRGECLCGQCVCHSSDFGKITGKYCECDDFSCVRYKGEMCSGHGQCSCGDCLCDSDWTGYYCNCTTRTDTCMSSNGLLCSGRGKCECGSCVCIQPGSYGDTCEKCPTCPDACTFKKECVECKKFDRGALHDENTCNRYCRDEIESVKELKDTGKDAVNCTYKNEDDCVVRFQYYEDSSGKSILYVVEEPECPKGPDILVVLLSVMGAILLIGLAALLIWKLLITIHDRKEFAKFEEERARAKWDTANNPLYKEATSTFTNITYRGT
Put plainly: Solid phase binding assay (Vitronectin-Ru, integrin coated paramagnetic beads). Conditions: FIGS. 4A and 4B. The procedure: as §1, §2

The test system of a further test is HT1080 cells. Put plainly: Effect on the growth of HT1080 cells. The format is cell-based, human. How it is done:
Laminin activity assay: Apoptosis of HT-1080 human fibrosarcoma cells. HT-1080 cells from a human fibrosarcoma are cultured in DMEM supplemented with 10% fetal bovine serum, 100 μg/ml streptomycin and 100 units/ml penicillin. The culture is started at a density of 5×10^4 cells per plate. The Fc-peptides (Fc-YIGSR, Fc-(YIGSR)2, YIGSR-Fc, or (YIGSR)2-Fc)) at various concentrations are added to each plate, and after 16 hours the cells are harvested for evaluation of apoptosis with crystal violet solution at 560 nm absorbance. The DNA fragmentation analysis is also carried out to assess the degree of apoptosis in a 1.5% agarose gel and visualized by ethidium bromide staining.
Two additional laminin peptides, (YIGSR)3 and (YIGSR)5 from Table 6 herein, were fused to human IgG1. Those fusion peptides were designated as laminin-3 ((YIGSR)3-Fc) and laminin-5 ((YIGSR)5-Fc). The purified peptide-Fc fusions were examined for their effect on the growth of HT1080 cells as described in Example 1. […] A 50-fold enhancement was seen after it was fused to human IgG1.

These results are taken from patent publication US20020168363A1, “Integrin/adhesion antagonists” (Amgen Inc., priority 2000, published 2002).

“Echistatin-Fc: echistatin fused via a 5 glycine linker to the C-terminus of the Fc portion of human IgG1 (SEQ ID NO: 109)”: the “inhibition of fibrinogen-ru binding to GPIIb/IIIa” value in the test with GPIIb/IIIa is “inhibition”. In addition, the “binding to human αvβ3” value in the test with human αvβ3 is reported as “binds with high affinity”.
YIGSRYIGSRYIGSR [(YIGSR)3] registered an IC100 in the test on HT1080 cells of 2.9 µM.
